B1: BBSome complex member BBS5 (Homo sapiens), Q8N3I7 (parent)
chain: MSVLDALWEDRDVRFDLSAQQMKTRPGEVLIDCLDSIEDTKGNNGDRGRLLVTNLRILWHSLALSRVNVSVGYNCILNITTRTANSKLRGQTEALYILTKCNSTRFEFIFTNLVPGSPRLFTSVMAVHRAYETSKMYRDFKLRSALIQNKQLRLLPQEHVYDKINGVWNLSSDQGNLGTFFITNVRIVWHANMNDSFNVSIPYLQIRSIKIRDSKFGLALVIESSQQSGGYVLGFKIDPVEKLQESVKEINSLHKVYSASPIFGVDYEMEEKPQPLEALTVEQIQDDVEIDSDGHTDAFVAYFADGNKQQDREPVFSEELGLAIEKLKDGFTLQGLWEVMS
partner: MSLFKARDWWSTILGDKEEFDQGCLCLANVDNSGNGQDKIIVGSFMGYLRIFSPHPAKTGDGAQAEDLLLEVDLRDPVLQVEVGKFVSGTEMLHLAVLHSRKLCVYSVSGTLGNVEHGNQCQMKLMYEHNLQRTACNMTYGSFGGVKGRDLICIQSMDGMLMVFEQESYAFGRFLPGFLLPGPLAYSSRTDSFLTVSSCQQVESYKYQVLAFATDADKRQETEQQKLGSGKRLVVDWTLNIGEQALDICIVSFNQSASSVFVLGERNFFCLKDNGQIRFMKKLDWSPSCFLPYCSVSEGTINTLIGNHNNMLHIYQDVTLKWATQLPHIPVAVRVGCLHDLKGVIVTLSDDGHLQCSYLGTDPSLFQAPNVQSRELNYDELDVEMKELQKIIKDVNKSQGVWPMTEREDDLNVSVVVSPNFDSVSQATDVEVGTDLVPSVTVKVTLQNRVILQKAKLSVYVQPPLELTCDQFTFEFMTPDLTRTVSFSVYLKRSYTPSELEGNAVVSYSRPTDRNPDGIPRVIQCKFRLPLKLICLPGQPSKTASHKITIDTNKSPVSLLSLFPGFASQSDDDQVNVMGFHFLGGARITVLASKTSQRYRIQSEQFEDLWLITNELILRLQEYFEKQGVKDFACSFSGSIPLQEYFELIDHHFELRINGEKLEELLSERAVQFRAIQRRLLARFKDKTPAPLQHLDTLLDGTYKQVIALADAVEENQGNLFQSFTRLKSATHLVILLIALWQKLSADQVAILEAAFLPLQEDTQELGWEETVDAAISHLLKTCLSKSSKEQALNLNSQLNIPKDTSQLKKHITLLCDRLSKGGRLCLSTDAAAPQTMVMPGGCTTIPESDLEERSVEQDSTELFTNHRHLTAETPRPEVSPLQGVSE

Variants of: B1
Conditions: with pthb1_human BBS9, Q3SYG4

Effect of a mutation on the interaction, with no effect:
MSVLDAEWEDRDVRFDLSAQQMKTRPGEVLIDCLDSIEDTKGNNGDRGRLLVTNLRILWHSLALSRVNVSVGYNCILNITTRTANSKLRGQTEALYILTKCNSTRFEFIFTNLVPGSPRLFTSVMAVHRAYETSKMYRDFKLRSALIQNKQLRLLPQEHVYDKINGVWNLSSDQGNLGTFFITNVRIVWHANMNDSFNVSIPYLQIRSIKIRDSKFGLALVIESSQQSGGYVLGFKIDPVEKLQESVKEINSLHKVYSASPIFGVDYEMEEKPQPLEALTVEQIQDDVEIDSDGHTDAFVAYFADGNKQQDREPVFSEELGLAIEKLKDGFTLQGLWEVMS [L7E]
MSVLDAKWEDRDVRFDLSAQQMKTRPGEVLIDCLDSIEDTKGNNGDRGRLLVTNLRILWHSLALSRVNVSVGYNCILNITTRTANSKLRGQTEALYILTKCNSTRFEFIFTNLVPGSPRLFTSVMAVHRAYETSKMYRDFKLRSALIQNKQLRLLPQEHVYDKINGVWNLSSDQGNLGTFFITNVRIVWHANMNDSFNVSIPYLQIRSIKIRDSKFGLALVIESSQQSGGYVLGFKIDPVEKLQESVKEINSLHKVYSASPIFGVDYEMEEKPQPLEALTVEQIQDDVEIDSDGHTDAFVAYFADGNKQQDREPVFSEELGLAIEKLKDGFTLQGLWEVMS [L7K]
MSVLDAAWEDRDVRFDLSAQQMKTRPGEVLIDCLDSIEDTKGNNGDRGRLLVTNLRILWHSLALSRVNVSVGYNCILNITTRTANSKLRGQTEALYILTKCNSTRFEFIFTNLVPGSPRLFTSVMAVHRAYETSKMYRDFKLRSALIQNKQLRLLPQEHVYDKINGVWNLSSDQGNLGTFFITNVRIVWHANMNDSFNVSIPYLQIRSIKIRDSKFGLALVIESSQQSGGYVLGFKIDPVEKLQESVKEINSLHKVYSASPIFGVDYEMEEKPQPLEALTVEQIQDDVEIDSDGHTDAFVAYFADGNKQQDREPVFSEELGLAIEKLKDGFTLQGLWEVMS [L7A]
MSVKDALWEDRDVRFDLSAQQMKTRPGEVLIDCLDSIEDTKGNNGDRGRLLVTNLRILWHSLALSRVNVSVGYNCILNITTRTANSKLRGQTEALYILTKCNSTRFEFIFTNLVPGSPRLFTSVMAVHRAYETSKMYRDFKLRSALIQNKQLRLLPQEHVYDKINGVWNLSSDQGNLGTFFITNVRIVWHANMNDSFNVSIPYLQIRSIKIRDSKFGLALVIESSQQSGGYVLGFKIDPVEKLQESVKEINSLHKVYSASPIFGVDYEMEEKPQPLEALTVEQIQDDVEIDSDGHTDAFVAYFADGNKQQDREPVFSEELGLAIEKLKDGFTLQGLWEVMS [L4K]
MSVEDALWEDRDVRFDLSAQQMKTRPGEVLIDCLDSIEDTKGNNGDRGRLLVTNLRILWHSLALSRVNVSVGYNCILNITTRTANSKLRGQTEALYILTKCNSTRFEFIFTNLVPGSPRLFTSVMAVHRAYETSKMYRDFKLRSALIQNKQLRLLPQEHVYDKINGVWNLSSDQGNLGTFFITNVRIVWHANMNDSFNVSIPYLQIRSIKIRDSKFGLALVIESSQQSGGYVLGFKIDPVEKLQESVKEINSLHKVYSASPIFGVDYEMEEKPQPLEALTVEQIQDDVEIDSDGHTDAFVAYFADGNKQQDREPVFSEELGLAIEKLKDGFTLQGLWEVMS [L4E]
MSVADALWEDRDVRFDLSAQQMKTRPGEVLIDCLDSIEDTKGNNGDRGRLLVTNLRILWHSLALSRVNVSVGYNCILNITTRTANSKLRGQTEALYILTKCNSTRFEFIFTNLVPGSPRLFTSVMAVHRAYETSKMYRDFKLRSALIQNKQLRLLPQEHVYDKINGVWNLSSDQGNLGTFFITNVRIVWHANMNDSFNVSIPYLQIRSIKIRDSKFGLALVIESSQQSGGYVLGFKIDPVEKLQESVKEINSLHKVYSASPIFGVDYEMEEKPQPLEALTVEQIQDDVEIDSDGHTDAFVAYFADGNKQQDREPVFSEELGLAIEKLKDGFTLQGLWEVMS [L4A]
MSVLDALWADRDVRFDLSAQQMKTRPGEVLIDCLDSIEDTKGNNGDRGRLLVTNLRILWHSLALSRVNVSVGYNCILNITTRTANSKLRGQTEALYILTKCNSTRFEFIFTNLVPGSPRLFTSVMAVHRAYETSKMYRDFKLRSALIQNKQLRLLPQEHVYDKINGVWNLSSDQGNLGTFFITNVRIVWHANMNDSFNVSIPYLQIRSIKIRDSKFGLALVIESSQQSGGYVLGFKIDPVEKLQESVKEINSLHKVYSASPIFGVDYEMEEKPQPLEALTVEQIQDDVEIDSDGHTDAFVAYFADGNKQQDREPVFSEELGLAIEKLKDGFTLQGLWEVMS [E9A]
MSVLDALWKDRDVRFDLSAQQMKTRPGEVLIDCLDSIEDTKGNNGDRGRLLVTNLRILWHSLALSRVNVSVGYNCILNITTRTANSKLRGQTEALYILTKCNSTRFEFIFTNLVPGSPRLFTSVMAVHRAYETSKMYRDFKLRSALIQNKQLRLLPQEHVYDKINGVWNLSSDQGNLGTFFITNVRIVWHANMNDSFNVSIPYLQIRSIKIRDSKFGLALVIESSQQSGGYVLGFKIDPVEKLQESVKEINSLHKVYSASPIFGVDYEMEEKPQPLEALTVEQIQDDVEIDSDGHTDAFVAYFADGNKQQDREPVFSEELGLAIEKLKDGFTLQGLWEVMS [E9K]
MSVLDALWEARDVRFDLSAQQMKTRPGEVLIDCLDSIEDTKGNNGDRGRLLVTNLRILWHSLALSRVNVSVGYNCILNITTRTANSKLRGQTEALYILTKCNSTRFEFIFTNLVPGSPRLFTSVMAVHRAYETSKMYRDFKLRSALIQNKQLRLLPQEHVYDKINGVWNLSSDQGNLGTFFITNVRIVWHANMNDSFNVSIPYLQIRSIKIRDSKFGLALVIESSQQSGGYVLGFKIDPVEKLQESVKEINSLHKVYSASPIFGVDYEMEEKPQPLEALTVEQIQDDVEIDSDGHTDAFVAYFADGNKQQDREPVFSEELGLAIEKLKDGFTLQGLWEVMS [D10A]
MSVLDKLWEDRDVRFDLSAQQMKTRPGEVLIDCLDSIEDTKGNNGDRGRLLVTNLRILWHSLALSRVNVSVGYNCILNITTRTANSKLRGQTEALYILTKCNSTRFEFIFTNLVPGSPRLFTSVMAVHRAYETSKMYRDFKLRSALIQNKQLRLLPQEHVYDKINGVWNLSSDQGNLGTFFITNVRIVWHANMNDSFNVSIPYLQIRSIKIRDSKFGLALVIESSQQSGGYVLGFKIDPVEKLQESVKEINSLHKVYSASPIFGVDYEMEEKPQPLEALTVEQIQDDVEIDSDGHTDAFVAYFADGNKQQDREPVFSEELGLAIEKLKDGFTLQGLWEVMS [A6K]
MSVLDELWEDRDVRFDLSAQQMKTRPGEVLIDCLDSIEDTKGNNGDRGRLLVTNLRILWHSLALSRVNVSVGYNCILNITTRTANSKLRGQTEALYILTKCNSTRFEFIFTNLVPGSPRLFTSVMAVHRAYETSKMYRDFKLRSALIQNKQLRLLPQEHVYDKINGVWNLSSDQGNLGTFFITNVRIVWHANMNDSFNVSIPYLQIRSIKIRDSKFGLALVIESSQQSGGYVLGFKIDPVEKLQESVKEINSLHKVYSASPIFGVDYEMEEKPQPLEALTVEQIQDDVEIDSDGHTDAFVAYFADGNKQQDREPVFSEELGLAIEKLKDGFTLQGLWEVMS [A6E]
MSVLDALAEDRDVRFDLSAQQMKTRPGEVLIDCLDSIEDTKGNNGDRGRLLVTNLRILWHSLALSRVNVSVGYNCILNITTRTANSKLRGQTEALYILTKCNSTRFEFIFTNLVPGSPRLFTSVMAVHRAYETSKMYRDFKLRSALIQNKQLRLLPQEHVYDKINGVWNLSSDQGNLGTFFITNVRIVWHANMNDSFNVSIPYLQIRSIKIRDSKFGLALVIESSQQSGGYVLGFKIDPVEKLQESVKEINSLHKVYSASPIFGVDYEMEEKPQPLEALTVEQIQDDVEIDSDGHTDAFVAYFADGNKQQDREPVFSEELGLAIEKLKDGFTLQGLWEVMS [W8A]
MSVLDALKEDRDVRFDLSAQQMKTRPGEVLIDCLDSIEDTKGNNGDRGRLLVTNLRILWHSLALSRVNVSVGYNCILNITTRTANSKLRGQTEALYILTKCNSTRFEFIFTNLVPGSPRLFTSVMAVHRAYETSKMYRDFKLRSALIQNKQLRLLPQEHVYDKINGVWNLSSDQGNLGTFFITNVRIVWHANMNDSFNVSIPYLQIRSIKIRDSKFGLALVIESSQQSGGYVLGFKIDPVEKLQESVKEINSLHKVYSASPIFGVDYEMEEKPQPLEALTVEQIQDDVEIDSDGHTDAFVAYFADGNKQQDREPVFSEELGLAIEKLKDGFTLQGLWEVMS [W8K]
MSVLDALEEDRDVRFDLSAQQMKTRPGEVLIDCLDSIEDTKGNNGDRGRLLVTNLRILWHSLALSRVNVSVGYNCILNITTRTANSKLRGQTEALYILTKCNSTRFEFIFTNLVPGSPRLFTSVMAVHRAYETSKMYRDFKLRSALIQNKQLRLLPQEHVYDKINGVWNLSSDQGNLGTFFITNVRIVWHANMNDSFNVSIPYLQIRSIKIRDSKFGLALVIESSQQSGGYVLGFKIDPVEKLQESVKEINSLHKVYSASPIFGVDYEMEEKPQPLEALTVEQIQDDVEIDSDGHTDAFVAYFADGNKQQDREPVFSEELGLAIEKLKDGFTLQGLWEVMS [W8E]
MSVLAALWEDRDVRFDLSAQQMKTRPGEVLIDCLDSIEDTKGNNGDRGRLLVTNLRILWHSLALSRVNVSVGYNCILNITTRTANSKLRGQTEALYILTKCNSTRFEFIFTNLVPGSPRLFTSVMAVHRAYETSKMYRDFKLRSALIQNKQLRLLPQEHVYDKINGVWNLSSDQGNLGTFFITNVRIVWHANMNDSFNVSIPYLQIRSIKIRDSKFGLALVIESSQQSGGYVLGFKIDPVEKLQESVKEINSLHKVYSASPIFGVDYEMEEKPQPLEALTVEQIQDDVEIDSDGHTDAFVAYFADGNKQQDREPVFSEELGLAIEKLKDGFTLQGLWEVMS [D5A]
MSVLKALWEDRDVRFDLSAQQMKTRPGEVLIDCLDSIEDTKGNNGDRGRLLVTNLRILWHSLALSRVNVSVGYNCILNITTRTANSKLRGQTEALYILTKCNSTRFEFIFTNLVPGSPRLFTSVMAVHRAYETSKMYRDFKLRSALIQNKQLRLLPQEHVYDKINGVWNLSSDQGNLGTFFITNVRIVWHANMNDSFNVSIPYLQIRSIKIRDSKFGLALVIESSQQSGGYVLGFKIDPVEKLQESVKEINSLHKVYSASPIFGVDYEMEEKPQPLEALTVEQIQDDVEIDSDGHTDAFVAYFADGNKQQDREPVFSEELGLAIEKLKDGFTLQGLWEVMS [D5K]
MSVLEALWEDRDVRFDLSAQQMKTRPGEVLIDCLDSIEDTKGNNGDRGRLLVTNLRILWHSLALSRVNVSVGYNCILNITTRTANSKLRGQTEALYILTKCNSTRFEFIFTNLVPGSPRLFTSVMAVHRAYETSKMYRDFKLRSALIQNKQLRLLPQEHVYDKINGVWNLSSDQGNLGTFFITNVRIVWHANMNDSFNVSIPYLQIRSIKIRDSKFGLALVIESSQQSGGYVLGFKIDPVEKLQESVKEINSLHKVYSASPIFGVDYEMEEKPQPLEALTVEQIQDDVEIDSDGHTDAFVAYFADGNKQQDREPVFSEELGLAIEKLKDGFTLQGLWEVMS [D5E]

Reference: IntAct's records for PubMed 29039417
